Reference: patent US20250043302A1, “MUTATED HYDROXYPHENYLPYRUVATE DIOXYGENASE POLYPEPTIDE, AND CODING GENE AND USE THEREOF” (BEIJING DABEINONG BIOTECHNOLOGY CO., LTD., priority 2021, published 2025)
Substitutions are numbered along the chain they refer to. Names may count otherwise.

B1: HvHPPDm-F372A-02: nucleotide sequence encoding Hordeum vulgare HPPD with F372A; vector DBN11763 (nucleic acid)
DNA: ATGCCGCCGACGCCCACCACCCCAGCAGCTACCGGAGCTGCGGCTGCAGTAACCCCTGAGCATGCTCGGCCCCACAGGATGGTGAGGTTTAATCCAAGATCAGATCGTTTTCATACACTCTCGTTCCACCATGTTGAGTTCTGGTGCGCCGACGCGGCTTCAGCGGCCGGGAGGTTCGCCTTCGCGCTGGGGGCCCCTCTTGCCGCGCGTAGTGATTTGTCTACTGGGAATTCAGCGCACGCGTCCCAGCTTCTCCGAAGCGGCAGTCTCGCCTTTCTCTTCACTGCACCATATGCAAATGGATGTGATGCAGCAACTGCTTCCCTGCCGAGCTTTTCTGCGGATGCCGCGAGGCGATTCAGTGCTGACCATGGGATCGCCGTCCGGTCAGTTGCTCTTAGAGTGGCTGATGCTGCTGAGGCATTCAGGGCTTCAAGGCGTCGTGGTGCACGCCCGGCGTTTGCCCCGGTTGATCTTGGGCGGGGGTTTGCTTTTGCAGAGGTGGAGCTGTACGGCGACGTGGTGCTCCGATTTGTTTCTCACCCGGACGGCACTGATGTGCCCTTCTTGCCAGGATTTGAAGGTGTGACCAACCCTGATGCCGTGGATTATGGACTCACAAGATTTGATCATGTGGTTGGCAATGTTCCTGAATTGGCACCTGCTGCCGCTTACATCGCAGGTTTTACTGGCTTCCATGAATTTGCTGAATTCACGGCGGAGGATGTTGGTACAACTGAGTCAGGGCTGAACAGTGTTGTTTTAGCCAACAACTCAGAAGGAGTTCTCCTTCCCTTGAATGAACCTGTTCATGGAACCAAGCGCCGCTCCCAAATTCAAACATTTCTTGAGCACCACGGCGGCCCTGGTGTTCAACATATTGCTGTCGCCTCTAGCGACGTCCTGCGTACATTACGCAAGATGAGGGCTCGGTCCGCAATGGGTGGTTTCGACTTCCTCCCTCCACCATTGCCAAAATATTATGAAGGCGTCAGAAGACTTGCAGGAGATGTCCTCTCTGAAGCTCAGATCAAGGAGTGCCAAGAACTTGGCGTCTTGGTTGATAGAGATGACCAAGGAGTACTTCTGCAGATAGCCACAAAACCCGTTGGTGACAGGCCAACTCTTTTCCTGGAGATGATTCAGAGAATTGGCTGCATGGAGAAAGATGAAAGAGGCGAGGAGTACCAGAAGGGTGGTTGTGGAGGCTTTGGAAAAGGAAACTTCTCAGAGCTGTTCAAGTCCATAGAAGATTACGAGAAAAGTCTAGAAGCCAAGCAGTCTGCTGCAGTGCAAGGTTCCTGA
modifications: HvHPPDm-F372A-02 Nucleotide Sequence
notes: vector DBN11763
B2: HvHPPDm-F383W-02: nucleotide sequence encoding Hordeum vulgare HPPD with F383W; vector DBN11764 (nucleic acid)
DNA: B1 DNA with G1096T, C1097T, C1098T, T1130G, C1131G
modifications: HvHPPDm-F383W-02 Nucleotide Sequence
notes: vector DBN11764

Assays:
Type in all cases: in vivo
[1] = test system: Arabidopsis thaliana T1 plants; assay: Mesotrione tolerance of transgenic Arabidopsis thaliana T1 plants (spray, bleached leaf area grade, damage score); set-up: Scores: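 damage score 0-100 computed as Σ(N×S)/(T×M)×100 over grades 0-3 with higher meaning more damage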; conditions: Arabidopsis thaliana T1 plants; for Grade 0 (classification and statistics of the grade of pesticide damage; number of plants) / Grade 1 (classification and statistics of the grade of pesticide damage; number of plants) / Grade 2 (classification and statistics of the grade of pesticide damage; number of plants) / Grade 3 (classification and statistics of the grade of pesticide damage; number of plants): 16 plants
Procedure, shortened: (§1)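 Damage graded 0–3 from the proportion of bleached leaf area 7 days after spraying. Plants were glufosinate-selected T1 lines, 18 days after sowing, plus vector and wild-type controls. Rates: mesotrione 52.5–420, isoxaflutole 35–280, topramezone 25–200 g ai/ha, with water (0×).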

[2] = test system: Arabidopsis thaliana T1 plants; assay: Topramezone tolerance of transgenic Arabidopsis thaliana T1 plants (spray, bleached leaf area grade, damage score); conditions: 7 DAT, Table 4; for Classification and statistics of the grade of pesticide damage: Grade 0 / Classification and statistics of the grade of pesticide damage: Grade 1 / Classification and statistics of the grade of pesticide damage: Grade 2 / Classification and statistics of the grade of pesticide damage: Grade 3: number of plants; for Scores: pesticide damage score 0-100
Procedure, shortened: as §1

[3] = test system: Arabidopsis thaliana T1 plants; assay: Isoxaflutole tolerance of transgenic Arabidopsis thaliana T1 plants (spray, bleached leaf area grade, damage score); set-up: Scores (pesticide damage): scale not given here; conditions: spray, Arabidopsis thaliana T1 plants; for Classification and statistics of the grade of pesticide damage: Grade 0 (number of plants) / Classification and statistics of the grade of pesticide damage: Grade 1 (number of plants) / Classification and statistics of the grade of pesticide damage: Grade 2 (number of plants) / Classification and statistics of the grade of pesticide damage: Grade 3 (number of plants): 16 plants
Procedure, shortened: as §1

[4] = isoxaflutole 35 g ai/ha (0.5x field concentration)
[5] = isoxaflutole 70 g ai/ha (1x field concentration)

| Molecule | Resistance evaluation ([1]; mesotrione 52.5 g ai/ha) | Scores ([1]; mesotrione 52.5 g ai/ha) | Grade 0 (classification and statistics of the grade of pesticide damage; number of plants) ([1]; mesotrione 52.5 g ai/ha) | Grade 1 (classification and statistics of the grade of pesticide damage; number of plants) ([1]; mesotrione 52.5 g ai/ha) | Grade 2 (classification and statistics of the grade of pesticide damage; number of plants) ([1]; mesotrione 52.5 g ai/ha) | Grade 3 (classification and statistics of the grade of pesticide damage; number of plants) ([1]; mesotrione 52.5 g ai/ha) | Resistance evaluation ([1]; mesotrione 105 g ai/ha) | Scores ([1]; mesotrione 105 g ai/ha) | Grade 0 (classification and statistics of the grade of pesticide damage; number of plants) ([1]; mesotrione 105 g ai/ha) | Grade 1 (classification and statistics of the grade of pesticide damage; number of plants) ([1]; mesotrione 105 g ai/ha) | Grade 2 (classification and statistics of the grade of pesticide damage; number of plants) ([1]; mesotrione 105 g ai/ha) | Grade 3 (classification and statistics of the grade of pesticide damage; number of plants) ([1]; mesotrione 105 g ai/ha) | Classification and statistics of the grade of pesticide damage: Grade 0 ([2]; topramezone 25 g ai/ha (1×)) | Classification and statistics of the grade of pesticide damage: Grade 1 ([2]; topramezone 25 g ai/ha (1×)) | Classification and statistics of the grade of pesticide damage: Grade 2 ([2]; topramezone 25 g ai/ha (1×)) | Classification and statistics of the grade of pesticide damage: Grade 3 ([2]; topramezone 25 g ai/ha (1×)) | Classification and statistics of the grade of pesticide damage: Grade 0 ([2]; topramezone 100 g ai/ha (4×)) | Classification and statistics of the grade of pesticide damage: Grade 1 ([2]; topramezone 100 g ai/ha (4×)) | Classification and statistics of the grade of pesticide damage: Grade 2 ([2]; topramezone 100 g ai/ha (4×)) | Classification and statistics of the grade of pesticide damage: Grade 3 ([2]; topramezone 100 g ai/ha (4×)) | also measured |
| --- | --- | --- | --- | --- | --- | --- | --- | --- | --- | --- | --- | --- | --- | --- | --- | --- | --- | --- | --- | --- | --- |
| B1 | Highly resistant | 15 | 9 | 7 | 0 | 0 | Poorly resistant | 56 | 0 | 9 | 3 | 4 | 15 | 1 | 0 | 0 | 8 | 8 | 0 | 0 | Scores ([2]; topramezone 25 g ai/ha (1×)): 2; Scores ([2]; topramezone 100 g ai/ha (4×)): 17; Resistance evaluation ([2]; topramezone 25 g ai/ha (1×)): highly; Resistance evaluation ([2]; topramezone 100 g ai/ha (4×)): moderately; Resistance evaluation [3, 4]: Moderately; Scores (pesticide damage) [3, 4]: 33; Classification and statistics of the grade of pesticide damage: Grade 0 (number of plants) [3, 4]: 1; Classification and statistics of the grade of pesticide damage: Grade 1 (number of plants) [3, 4]: 14; Classification and statistics of the grade of pesticide damage: Grade 2 (number of plants) [3, 4]: 1; Classification and statistics of the grade of pesticide damage: Grade 3 (number of plants) [3, 4]: 0; Resistance evaluation [3, 5]: Poorly; Scores (pesticide damage) [3, 5]: 44; Classification and statistics of the grade of pesticide damage: Grade 0 (number of plants) [3, 5]: 0; Classification and statistics of the grade of pesticide damage: Grade 1 (number of plants) [3, 5]: 12; Classification and statistics of the grade of pesticide damage: Grade 2 (number of plants) [3, 5]: 3; Classification and statistics of the grade of pesticide damage: Grade 3 (number of plants) [3, 5]: 1 |
| B2 | Moderately | 33 | 2 | 12 | 2 | 0 | Non-resistant | 100 | 0 | 0 | 0 | 16 | 4 | 6 | 5 | 1 | 0 | 0 | 0 | 16 | Scores ([2]; topramezone 25 g ai/ha (1×)): 40; Scores ([2]; topramezone 100 g ai/ha (4×)): 100; Resistance evaluation ([2]; topramezone 25 g ai/ha (1×)): poorly; Resistance evaluation ([2]; topramezone 100 g ai/ha (4×)): non-resistant (non-resistant plants (scores 68-100)); Resistance evaluation [3, 4]: Poorly; Scores (pesticide damage) [3, 4]: 67; Classification and statistics of the grade of pesticide damage: Grade 0 (number of plants) [3, 4]: 0; Classification and statistics of the grade of pesticide damage: Grade 1 (number of plants) [3, 4]: 1; Classification and statistics of the grade of pesticide damage: Grade 2 (number of plants) [3, 4]: 14; Classification and statistics of the grade of pesticide damage: Grade 3 (number of plants) [3, 4]: 1; Resistance evaluation [3, 5]: Non-resistant; Scores (pesticide damage) [3, 5]: 100; Classification and statistics of the grade of pesticide damage: Grade 0 (number of plants) [3, 5]: 0; Classification and statistics of the grade of pesticide damage: Grade 1 (number of plants) [3, 5]: 0; Classification and statistics of the grade of pesticide damage: Grade 2 (number of plants) [3, 5]: 0; Classification and statistics of the grade of pesticide damage: Grade 3 (number of plants) [3, 5]: 16 |
